The source of these data is patent US11225644B2, “Cell culture method, cell aggregates, cell aggregation control agent, and medium” (THE UNIVERSITY OF TOKYO, priority 2015, dated 2022).

Common to all, as to assay type: cell-based, human
In data set [1] the test system is hiPS cells (TkDN4-M). The data set is described as follows: Observation of cell aggregates in rotation suspension culture in Essential 8 (Example 3). The settings on record: Day 5 of the culture, Essential 8, E-cadherin-Fc 50 or 100 μg/ml for first 48 hours, 100 rpm. The procedure:
(§1) To a 12-well plate subjected to low-cell-adhesion treatment, 1 mL of Essential 8® was added, and hiPS cells (TkDN4-M, Stem Cell Bank, The University of Tokyo) (2×10^5 cells/ml) provided in advance and, as a substance that inhibits a cell adhesion molecule(s) of the hiPS cells, E-cadherin-Fc (50 μg/ml) were added at the same time, followed by performing rotation culture at a speed of 100 rpm for 5 days. On Day 2 of the culture and thereafter (from 48 hours after the beginning of the culture), medium replacement was carried out every day with a medium to which E-cadherin-Fc was not added.
Aggregates were obtained in the same manner as in […] except that the concentration of E-cadherin-Fc in Example 3-1 was 100 μg/ml.
Morphology of cell aggregates in Examples 3-1 and 3-2, and Comparative Example 3-1 on Day 2 and Day 5 of the culture was observed using a phase-contrast microscope (product name, DM IRB; manufactured by LEICA). From the results shown in FIGS. 6 and 7, it can be seen that the size of the aggregates can be controlled also in cases where Essential 8® is used as the medium. On Day 5 of the culture, in the cases where E-cadherin-Fc was added, the size of the aggregates was larger than that on Day 2 of the culture, and the diameter of the aggregates was controlled at about 500 μm.

Data set [2] deals with hiPS cells (TkDN4-M). The data set is described as follows: Measurement of number of cells, Essential 8 culture (Example 3). The conditions noted are these: Examples 3-1 and 3-2 (50, 100 μg/ml) vs Comparative Example 3-1, Essential 8, after 5 days, FIG. 9. The protocol: (§2) After completion of the culture, the cells were dispersed into single cells using TrypLE® select, and the number of live cells was counted using trypan blue (manufactured by Life Technologies) and an eosinophil counter (manufactured by Tatai).
as §1

Data set [3] deals with hiPS cells (TkDN4-M). Briefly: Diameters of cell aggregates in rotation suspension culture in mTeSR1 (Example 1). The protocol:
As pluripotent stem cells, hiPS cells (TkDN4-M, Stem Cell Bank, The University of Tokyo) were used. These cells were plated on the above culture plate at a density of 100,000 to 400,000 cells/well, and cultured for four days. The culture was carried out using, as a culture medium, 2 mL/well of mTeSR®1 (manufactured by StemCell Technologies). During the culture, medium replacement was carried out every day except for the day after the plating.
For detachment and collection of cells, TrypLE® select (manufactured by Life Technologies), which is a trypsin-like enzyme, was used. After removal of the culture liquid, TrypLE® select was added to the wells at 1 mL/well, and the plate was incubated at 37° C. for 2 to 5 minutes. Thereafter, TrypLE® select was removed, and mTeSR®1 supplemented with 10 μM Y-27632, which is a ROCK inhibitor, was added to the wells at 2 mL/well, followed by pipetting using a 1000-μL micropipette to detach the cells. The collected cell suspension was passed through a 40-μm cell strainer (BD) to collect the cells as single cells and/or microaggregates, to thereby obtain cells to be applied to suspension culture.
In the following Examples and Comparative Examples, morphology and sizes of cell aggregates during the culture period were observed and measured using a phase-contrast microscope (product name, DM IRB; manufactured by LEICA). […]

Data set [4] has as its system hiPS cells (TkDN4-M). The data set is described as follows: Measurement of glucose consumption, mTeSR1 culture (Example 1). The conditions noted are these: Day 5 of the culture. The protocol: (§3) […] The sizes of the aggregates 48 hours after the E-cadherin-Fc treatment were within the range of 300 to 700 μm. Subsequently, medium replacement was carried out, and culture was carried out for three days under the same conditions as described above except that E-cadherin-Fc was not added, to obtain aggregates. The sizes of the aggregates were within the range of 500 to 1000 μm.
(§4) During the whole culture period, 300 μL of the culture liquid was collected upon replacement of the medium, and the glucose concentration was analyzed using an enzyme-electrode type bioanalyzer (YS12950) to calculate changes in the glucose consumption.

Data set [5] has as its system hiPS cells (TkDN4-M). The data set is described as follows: Measurement of live cell number after culture, mTeSR1 (Example 1). The settings on record: Day 5 of the culture. The protocol: as §3, §2
In data set [6] the test system is hiPS cells (TkDN4-M). The data set is described as follows: Observation of cell aggregates after 1 day of rotation culture (Example 2). The conditions noted are these: 10 μg/ml, FIG. 5; for uniformity of aggregate diameters compared to Comparative Example 2-1: mTeSR1, rotation culture 90 rpm for 1 day. The protocol: To a 12-well plate subjected to low-cell-adhesion treatment, 1 mL of mTeSR®1 was added, and hiPS cells (TkDN4-M, Stem Cell Bank, The University of Tokyo) ([…] cells/ml) provided in advance and, as a substance that inhibits a cell adhesion molecule(s) of the hiPS cells, recombinant E-cadherin (hRP-0339, manufactured by LD Biopharma) (10 μg/ml) were added at the same time, followed by performing rotation culture at a speed of 90 rpm for 1 day.
Aggregates were obtained in the same manner as in Example 2-1 except that a neutralizing antibody against E-cadherin (E-cadherin antibody MAB3199Z, manufactured by Millipore) ([…]) was used as the substance that inhibits a cell adhesion molecule(s) of the hiPS cells in Example 2-2.
Aggregates were obtained in the same manner as in Example 2-1 except that E-cadherin-Fc (10 μg/ml) was used as the substance that inhibits a cell adhesion molecule(s) of the hiPS cells in Example 2-3.
Morphology of cell aggregates in Examples 2-1 to 2-3 and Comparative Example 2-1 was observed using a phase-contrast microscope (product name. DM IRB; manufactured by LEICA).

Data set [7] has as its system hiPS cells (TkDN4-M). The data set is described as follows: Measurement of glucose consumption, Essential 8 culture (Example 3). The settings on record: Examples 3-1 and 3-2 (50, 100 μg/ml) vs Comparative Example 3-1, Essential 8, FIG. 8. The protocol: as §4, §1

B1: E-cadherin-Fc: fusion protein of mouse E-cadherin extracellular domain and mutated IgG1-Fc domain (T252M/T254S) (protein)
chain: DWVIPPISCPENEKGEFPKNLVQIKSNRDKETKVFYSITGQGADKPPVGVFIIERETGWLKVTQPLDREAIAKYILYSHAVSSNGEAVEDPMEIVITVTDQNDNRPEFTQPVFEGFVAEGAVPGTSVMKVSATDADDDVNTYNAAIAYTIVSQDPELPHKNMFTVNRDTGVISVLTSGLDRESYPTYTLVVQAADLQGEGLSTTAKAVITVKDINDNAPVFNPSTYQGQVPENEVNARIATLKVTDDDAPNTPAWKAVYTVVNDPDQQFVVVTDPTTNDGILKTAKGLDFEAKQQYILHVRVENEEPFEGSLVPSTATVTVDVVDVNEAPIFMPAERRVEVPEDFGVGQEITSYTAREPDTFMDQKITYRIWRDTANWLEINPETGAIFTRAEMDREDAEHVKNSTYVALIIATDDGSPIATGTGTLLLVLLDVNDNAPIPEPRNMQFCQRNPQPHIITILDPDLPPNTSPFTAELTHGASVNWTIEYNDAAQESLILQPRKDLEIGEYKIHLKLADNQNKDQVTTLDVHVCDCEGTVNNCMKAGIVAAGLQV
modifications: left off: a dimerising Fc or GST
Consider B1, for which the “diameter of the aggregates” value in the data set with hiPS cells (TkDN4-M) [1] is on record as “about 500 μm”. In the data set on hiPS cells (TkDN4-M) [2], the number of cells result is “excellent effect”. The “morphology of cell aggregates compared to Comparative Example 1-1” value in the data set on hiPS cells (TkDN4-M) [3] (5, 10, 20, 50 and 100 μg/ml, Day 2 of the culture, FIG. 2) is given as “better-controlled sizes”. The “suppression of excessive aggregation and formation of uniform aggregates” value in the data set with hiPS cells (TkDN4-M) [3] (concentration within 10 to 50 μg/ml, Day 2, simple rotation culture) was “effective”. In addition, the “glucose consumption compared to Comparative Example 1-1” value in the data set with hiPS cells (TkDN4-M) [4] (Example 1-1, 5 μg/ml) is given as “about twice”; in the data set on hiPS cells (TkDN4-M) [4] (Example 1-2, 10 μg/ml) it was 2 times; with hiPS cells (TkDN4-M) [4] (Example 1-3, 20 μg/ml), 2.5 times; with hiPS cells (TkDN4-M) [4] (Example 1-4, 50 μg/ml), 2.5 times; with hiPS cells (TkDN4-M) [4] (Example 1-5, 100 μg/ml), 2 times. Besides, the “number of cells compared to Comparative Example 1-1” value with hiPS cells (TkDN4-M) [5] (Example 1-2, 10 μg/ml) is given as “about 1.8 times”; in the data set on hiPS cells (TkDN4-M) [5] (Example 1-3, 20 μg/ml), “about 2.5 times”; in the data set on hiPS cells (TkDN4-M) [5] (Example 1-4, 50 μg/ml) it was “about 3 times”; with hiPS cells (TkDN4-M) [5] (Example 1-5, 100 μg/ml), “about 2.3 times”. Besides, the “uniformity of aggregate diameters compared to Comparative Example 2-1” value in the data set with hiPS cells (TkDN4-M) [6] is listed as “more uniformly controlled diameters”. Also, the “aggregates compared to recombinant E-cadherin or neutralizing antibody against E-cadherin” value in the data set with hiPS cells (TkDN4-M) [6] (rotation culture for 1 day) is on record as “larger aggregates having more uniform shapes”. The glucose consumption entry in the data set on hiPS cells (TkDN4-M) [7] is “excellent effect”.

B2: recombinant E-cadherin: recombinant E-cadherin (hRP-0339, manufactured by LD Biopharma) (protein, UniProt P12830 155-882, looked up)
Cadherin-1: DWVIPPISCPENEKGPFPKNLVQIKSNKDKEGKVFYSITGQGADTPPVGVFIIERETGWLKVTEPLDRERIATYTLFSHAVSSNGNAVEDPMEILITVTDQNDNKPEFTQEVFKGSVMEGALPGTSVMEVTATDADDDVNTYNAAIAYTILSQDPELPDKNMFTINRNTGVISVVTTGLDRESFPTYTLVVQAADLQGEGLSTTATAVITVTDTNDNPPIFNPTTYKGQVPENEANVVITTLKVTDADAPNTPAWEAVYTILNDDGGQFVVTTNPVNNDGILKTAKGLDFEAKQQYILHVAVTNVVPFEVSLTTSTATVTVDVLDVNEAPIFVPPEKRVEVSEDFGVGQEITSYTAQEPDTFMEQKITYRIWRDTANWLEINPDTGAISTRAELDREDFEHVKNSTYTALIIATDNGSPVATGTGTLLLILSDVNDNAPIPEPRTIFFCERNPKPQVINIIDADLPPNTSPFTAELTHGASANWTIQYNDPTQESIILKPKMALEVGDYKINLKLMDNQNKDQVTTLEVSVCDCEGAAGVCRKAQPVEAGLQIPAILGILGGILALLILILLLLLFLRRRAVVKEPLLPPEDDTRDNVYYYDEEGGGEEDQDFDLSQLHRGLDARPEVTRNDVAPTLMSVPRYLPRPANPDEIGNFIDENLKAADTDPTAPPYDSLLVFDYEGSGSEAASLSSLNSSESDKDQDYDYLNEWGNRFKKLADMYGGGEDD
For the molecule B2, the “uniformity of aggregate diameters compared to Comparative Example 2-1” value in the data set on hiPS cells (TkDN4-M) [6] is reported as “more uniformly controlled diameters”.
